Measured values as given in US20130345145A1, “ATIP3 AND BIOLOGICALLY ACTIVE FRAGMENTS THEREOF FOR USE IN THE TREATMENT OF CANCER” (INSTITUT NATIONAL DE LA SANTE ET DE LA RECHERCHE MEDICALE …, priority 2011, published 2013).

Tests used:
[1] = system: human breast cancer MCF-7 cells; assay: Clonogenicity experiments; type: cell-based; details: for inhibitory effect on colony number relative to that of GFP-ATIP3: MCF7, FIG. 12; for cell proliferation / number of G418-resistant colonies: MCF-7 transfected with GFP fusion, G418 selection 3 weeks, compared to GFP
Method: For clonogenicity experiments, human breast cancer MCF-7 cells were transfected for 24 h with […] pEGFP-C1 vector or 2 μg of pEGFP-ATIP3BD cDNA. Similar transfection efficiency (50%) was assessed by FACS analysis and cell viability was verified using trypan blue. Cells were then plated at various dilutions in 12 well plates and transfectants were selected by adding geneticin (G418, 1 mg/ml, Gibco) in fresh medium twice a week for 3 weeks. Resistant colonies were stained with 0.5% crystal violet (Sigma) and counted.
The ability of human MCF7 breast cancer cells to form colonies following expression of minimal domains D2N and D2C was analyzed by clonogenicity experiments as described before (see example 2).

[2] = system: microtubule cytoskeleton; assay: Immunofluorescence intracellular localization in RPE1 cells; type: cell-based, Human; details: RPE1 cells transfected 24 hrs, data not shown
Method: Immunofluorescence study was performed as example 2. Briefly, Human retinal pigment epithelial (RPE1) cells were transfected for 24 hrs with GFP-D2N, GFP-D2C or GFP-D2CC constructs prior to fixation in ice-cold methanol and incubation with anti-GFP antibodies as described (page 21, lines 1-9).

[3] = system: microtubule cytoskeleton; assay: Immunofluorescence localization in transfected MCF-7 cells; type: cell-based, human; details: MCF-7 cells transiently transfected 24 h, data not shown
Method: (§1) The pEGFP-ATIP3BD plasmid was transiently transfected into human breast cancer MCF-7 cells. Localization of GFP-ATIP3BD fusion protein at the microtubule cytoskeleton was examined by immunofluorescence, and its ability to interact with stabilized microtubules was determined by co-sedimentation assay.
Exponentially growing human breast cancer MCF-7 cells plated on coverslips were transiently transfected (24 h) with pEGFP-ATIP3BD plasmid, and fixed in ice-cold methanol for 5 min prior to incubation for 1 h at room temperature with primary antibodies: anti-GFP monoclonal antibodies (Roche, diluted 1:200) and human anti-alpha-tubulin antibodies clone F2C (diluted 1:10), as described in Rodrigues-Ferreira et al. (PLoS One. 2009; 4(10):e7239 2009). After extensive washing, cells were incubated for 30 min at room temperature with appropriate secondary Cy-2-conjugated anti-human and/or Cy-3-conjugated anti-mouse antibodies (Jackson Laboratories, Interchim, France) diluted 1:500. Coverslips were mounted on glass slides using Glycergel Mounting Medium (DakoCytomation) and examined with a Leica TCS SP2 AOBS confocal microscope using appropriate filters. Image analysis was performed with NIH ImageJ software.

[4] = system: stabilized microtubules; assay: Microtubule co-sedimentation assay; type: binding, human; details: MCF-7 lysate, taxol 20 μM, data not shown
Method: as §1
For microtubule cosedimentation assay, human breast cancer MCF-7 cells were transiently transfected (24 h) with pEGFP-ATIP3BD plasmid and incubated for 20 min at 4° C. in PEM buffer (100 mM PIPES, pH 6.9, 1 mM MgSO4, 1 mM EGTA), scraped and sonicated prior to centrifugation at 15000 rpm for 10 min, 4° C. Clarified samples were incubated with taxol (20 μM) in the presence of GTP (1 mM) and DTT (1 mM) for 45 min at 37° C. and were spun at 70 000 g for 30 min at 30° C. through a cushion buffer containing 40% glycerol, 20 μM taxol and 1 mM GTP. The supernatant (S) and pellet (P) fractions were collected separately and subsequently immunoblotted with anti-GFP (Roche) and anti-alpha-tubulin (Sigma) antibodies.

Molecule | inhibitory effect on colony number relative to that of GFP-ATIP3 [1] [%] | cell proliferation / number of G418-resistant colonies [1] | intracellular localization [2] | localization of GFP fusion protein at the microtubule cytoskeleton [3] | co-sedimentation with stabilized microtubules [4]
D2C: domain of ATIP3BD, amino-acid positions 705-874 of SEQ ID NO: 1, expressed as GFP fusion (protein, listed as Homo sapiens, GFP fusion; (1)..(409) acidic N-terminal region) TTSGRNISKPDSCGLRQIAAPKAKVGPPVSCLRRNSDNRNPSADRAVSPQRIRRVSSSGKPTSLKTAQSSWVNLPRPLPKSKASLKSPALRRTGSTPSIASTHSELSTYSNNSGNAAVIKYEEKPPKPAFQNGSSGSFYLKPLVSRAHVHLMKTPPKGPSRKNLFTALNA | 78 | strongly reduces the number of G418-resistant colonies | associate with the microtubule cytoskeleton |  | 
ATIP3a: microtubule-associated tumor suppressor 1 isoform 1, SEQ ID NO: 1 (protein, listed as Homo sapiens, (1)..(409) acidic N-terminal region) MTDDNSDDKIEDELQTFFTSDKDGNTHAYNPKSPPTQNSSASSVNWNSANPDDMVVDYETDPAVVTGENISLSLQGVEVFGHEKSSSDFISKQVLDMHKDSICQCPALVGTEKPKYLQHSCHSLEAVEGQSVEPSLPFVWKPNDNLNCAGYCDALELNQTFDMTVDKVNCTFISHHAIGKSQSFHTAGSLPPTGRRSGSTSSLSYSTWTSSHSDKTHARETTYDRESFENPQVTPSEAQDMTYTAFSDVVMQSEVFVSDIGNQCACSSGKVTSEYTDGSQQRLVGEKETQALTPVSDGMEVPNDSALQEFFCLSHDESNSEPHSQSSYRHKEMGQNLRETVSYCLIDDECPLMVPAFDKSEAQVLNPEHKVTETEDTQMVSKGKDLGTQNHTSELILSSPPGQKVGSSFGLTWDANDMVISTDKTMCMSTPVLEPTKVTFSVSPIEATEKCKKVEKGNRGLKNIPDSKEAPVNLCKPSLGKSTIKTNTPIGCKVRKTEIISYPRPNFKNVKAKVMSRAVLQPKDAALSKVTPRPQQTSASSPSSVNSRQQTVLSRTPRSDLNADKKAEILINKTHKQQFNKLITSQAVHVTTHSKNASHRVPRTTSAVKSNQEDVDKASSSNSACETGSVSALFQKIKGILPVKMESAECLEMTYVPNIDRISPEKKGEKENGTSMEKQELKQEIMNETFEYGSLFLGSASKTTTTSGRNISKPDSCGLRQIAAPKAKVGPPVSCLRRNSDNRNPSADRAVSPQRIRRVSSSGKPTSLKTAQSSWVNLPRPLPKSKASLKSPALRRTGSTPSIASTHSELSTYSNNSGNAAVIKYEEKPPKPAFQNGSSGSFYLKPLVSRAHVHLMKTPPKGPSRKNLFTALNAVEKSRQKNPRSLCIQPQTAPDALPPEKTLELTQYKTKCENQSGFILQLKQLLACGNTKFEALTVVIQHLLSEREEALKQHKTLSQELVNLRGELVTASTTCEKLEKARNELQTVYEAFVQQHQAEKTERENRLKEFYTREYEKLRDTYIEEAEKYKMQLQEQFDNLNAAHETSKLEIEASHSEKLELLKKAYEASLSEIKKGHEIEKKSLEDLLSEKQESLEKQINDLKSENDALNEKLKSEEQKRRAREKANLKNPQIMYLEQELESLKAVLEIKNEKLHQQDIKLMKMEKLVDNNTALVDKLKRFQQENEELKARMDKHMAISRQLSTEQAVLQESLEKESKVNKRLSMENEELLWKLHNGDLCSPKRSPTSSAIPLQSPRNSGSFPSPSISPR |  | inhibit cell proliferation and reduce cancer cell growth |  |  | 
D2N: domain of ATIP3BD, amino-acid positions 410-634 of SEQ ID NO: 1, expressed as GFP fusion (protein, listed as Homo sapiens, GFP fusion; (1)..(409) acidic N-terminal region) GLTWDANDMVISTDKTMCMSTPVLEPTKVTFSVSPIEATEKCKKVEKGNRGLKNIPDSKEAPVNLCKPSLGKSTIKTNTPIGCKVRKTEIISYPRPNFKNVKAKVMSRAVLQPKDAALSKVTPRPQQTSASSPSSVNSRQQTVLSRTPRSDLNADKKAEILINKTHKQQFNKLITSQAVHVTTHSKNASHRVPRTTSAVKSNQEDVDKASSSNSACETGSVSALF | 71 | strongly reduces the number of G418-resistant colonies | associate with the microtubule cytoskeleton |  | 
ATIP3BD: basic central domain of ATIP3, residues 410-874 of SEQ ID NO: 1, expressed as GFP fusion (protein, listed as Homo sapiens, GFP fusion; (1)..(409) acidic N-terminal region) GLTWDANDMVISTDKTMCMSTPVLEPTKVTFSVSPIEATEKCKKVEKGNRGLKNIPDSKEAPVNLCKPSLGKSTIKTNTPIGCKVRKTEIISYPRPNFKNVKAKVMSRAVLQPKDAALSKVTPRPQQTSASSPSSVNSRQQTVLSRTPRSDLNADKKAEILINKTHKQQFNKLITSQAVHVTTHSKNASHRVPRTTSAVKSNQEDVDKASSSNSACETGSVSALFQKIKGILPVKMESAECLEMTYVPNIDRISPEKKGEKENGTSMEKQELKQEIMNETFEYGSLFLGSASKTTTTSGRNISKPDSCGLRQIAAPKAKVGPPVSCLRRNSDNRNPSADRAVSPQRIRRVSSSGKPTSLKTAQSSWVNLPRPLPKSKASLKSPALRRTGSTPSIASTHSELSTYSNNSGNAAVIKYEEKPPKPAFQNGSSGSFYLKPLVSRAHVHLMKTPPKGPSRKNLFTALNA |  | mimic the inhibitory effects of the entire ATIP3a and ATIP3b proteins |  | localizes at the microtubule cytoskeleton | co-sediments with stabilized microtubules
ATIP3b: microtubule-associated tumor suppressor 1 isoform 2, SEQ ID NO: 6 (protein, listed as Homo sapiens, (1)..(409) acidic N-terminal region) MTDDNSDDKIEDELQTFFTSDKDGNTHAYNPKSPPTQNSSASSVNWNSANPDDMVVDYETDPAVVTGENISLSLQGVEVFGHEKSSSDFISKQVLDMHKDSICQCPALVGTEKPKYLQHSCHSLEAVEGQSVEPSLPFVWKPNDNLNCAGYCDALELNQTFDMTVDKVNCTFISHHAIGKSQSFHTAGSLPPTGRRSGSTSSLSYSTWTSSHSDKTHARETTYDRESFENPQVTPSEAQDMTYTAFSDVVMQSEVFVSDIGNQCACSSGKVTSEYTDGSQQRLVGEKETQALTPVSDGMEVPNDSALQEFFCLSHDESNSEPHSQSSYRHKEMGQNLRETVSYCLIDDECPLMVPAFDKSEAQVLNPEHKVTETEDTQMVSKGKDLGTQNHTSELILSSPPGQKVGSSFGLTWDANDMVISTDKTMCMSTPVLEPTKVTFSVSPIEATEKCKKVEKGNRGLKNIPDSKEAPVNLCKPSLGKSTIKTNTPIGCKVRKTEIISYPRPNFKNVKAKVMSRAVLQPKDAALSKVTPRPQQTSASSPSSVNSRQQTVLSRTPRSDLNADKKAEILINKTHKQQFNKLITSQAVHVTTHSKNASHRVPRTTSAVKSNQEDVDKASSSNSACETGSVSALFQKIKGILPVKMESAECLEMTYVPNIDRISPEKKGEKENGTSMEKQELKQEIMNETFEYGSLFLGSASKTTTTSGRNISKPDSCGLRQIAAPKAKVGPPVSCLRRNSDNRNPSADRAVSPQRIRRVSSSAGNAAVIKYEEKPPKPAFQNGSSGSFYLKPLVSRAHVHLMKTPPKGPSRKNLFTALNAVEKSRQKNPRSLCIQPQTAPDALPPEKTLELTQYKTKCENQSGFILQLKQLLACGNTKFEALTVVIQHLLSEREEALKQHKTLSQELVNLRGELVTASTTCEKLEKARNELQTVYEAFVQQHQAEKTERENRLKEFYTREYEKLRDTYIEEAEKYKMQLQEQFDNLNAAHETSKLEIEASHSEKLELLKKAYEASLSEIKKGHEIEKKSLEDLLSEKQESLEKQINDLKSENDALNEKLKSEEQKRRAREKANLKNPQIMYLEQELESLKAVLEIKNEKLHQQDIKLMKMEKLVDNNTALVDKLKRFQQENEELKARMDKHMAISRQLSTEQAVLQESLEKESKVNKRLSMENEELLWKLHNGDLCSPKRSPTSSAIPLQSPRNSGSFPSPSISPR |  | inhibit cell proliferation and reduce cancer cell growth |  |  | 
